Test results as given in paper doi:10.1101/466938v1.

Tests used:
NADH-coupled assay [1] = substrate: Cc1cn([C@H]2C[C@H](O)[C@@H](COP(=O)(O)O)O2)c(=O)[nH]c1=O; assay: NADH-coupled assay; assay type: biochemical, Candida albicans; settings: 500 μM ATP, 100 mM Tris-HCl, 100 mM KCl, 10 mM MgCl2
NADH-coupled assay [2] = substrate: Cc1cn([C@H]2C[C@H](O)[C@@H](COP(=O)(O)O)O2)c(=O)[nH]c1=O; assay: NADH-coupled assay; assay type: biochemical, Homo sapiens; settings: 500 μM ATP, 100 mM Tris-HCl, 100 mM KCl, 10 mM MgCl2

B1: CaTMPK (Candida albicans SC5314) (protein)
chain: MARGQLILIEGLDRSGKSTQASILSTKLSPSKLIKFPDRSTPIGKLINEYLTNKSFTLSDQAAHLLFSANRWELSQQIQDLLNQGYFIILDRYIYSGIAYTLAKNDFHDETISQGKNKQQLNNIDWLLSPDKGLPKPDLTLFLTLDLEEISKRKGWGDERYELQQFQAKVKQCFLEILDTNKDPTIRIVDVGGKTIDQVTTQLWEIIETNKNHELINDSIQFIT
NADH-coupled assay [1]
  Km: 24.1 ± 3.2 µM
  kcat: 5.347 ± 0.118 s⁻¹

B2: hTMPK (Homo sapiens) (protein)
chain: MAARRGALIVLEGVDRAGKSTQSRKLVEALCAAGHRAELLRFPERSTEIGKLLSSYLQKKSDVEDHSVHLLFSANRWEQVPLIKEKLSQGVTLVVDRYAFSGVAFTGAKENFSLDWCKQPDVGLPKPDLVLFLQLQLADAAKRGAFGHERYENGAFQERALRCFHQLMKDTTLNWKMVDASKSIEAVHEDIRVLSEDAIRTATEKPLGELWK
NADH-coupled assay [2]
  Km: 16.3 ± 2.3 µM
  kcat: 0.352 ± 0.01 s⁻¹
